Measurements taken from PMC11417369, “DNA sequence and chromatin differentiate sequence-specific transcription factor binding in the human malaria parasite Plasmodium falciparum”.

T1: HDP1 homeodomain-like (Plasmodium falciparum, UniProt Q8IKH4 2990-3078)
T1 sequence: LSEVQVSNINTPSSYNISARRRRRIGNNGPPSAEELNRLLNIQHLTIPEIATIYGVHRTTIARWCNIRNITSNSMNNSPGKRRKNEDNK


Biological target: T1, HDP1 homeodomain-like
Assay: gcPBM; about 25 ug protein; PBS, 1% milk, 0.2 mg/ml BSA, salmon testes DNA, 0.03% Triton X-100
Conditions: tags: N-terminal GST (pGEX-4T-1), kept; chain copies: 2; label: surface-attached array probe

Row | Binder | binding signal
1 | GTGCAC_negctrl_site347 (dsDNA) DNA 1: TTTTTTTTTATATAAAAAAAAATTTTTATTATTTTA DNA 2: TAAAATAATAAAAATTTTTTTTTATATAAAAAAAAA | 6.12 ln median PBM intensity, better of two orientations
2 | GTGCAC_negctrl_site487 (dsDNA) DNA 1: ATCATGGAAAAAACAAATGGGCTACATTACCTTTTG DNA 2: CAAAAGGTAATGTAGCCCATTTGTTTTTTCCATGAT | 5.94 ln median PBM intensity, better of two orientations
3 | GTGCAC_negctrl_site74 (dsDNA) DNA 1: AATTGGAAGAAAAAAAAGGAAGGAAAGTTATTACAT DNA 2: ATGTAATAACTTTCCTTCCTTTTTTTTCTTCCAATT | 6.06 ln median PBM intensity, better of two orientations
4 | GTGCAC_negctrl_site639 (dsDNA) DNA 1: AAATAATTTATAAATAAATACATTGTTACTTTTTCT DNA 2: AGAAAAAGTAACAATGTATTTATTTATAAATTATTT | 6.13 ln median PBM intensity, better of two orientations
5 | GTGCAC_negctrl_site338 (dsDNA) DNA 1: TTTTTTTTTTTTTTTTTTTTTTTGTCTTATTTTTTT DNA 2: AAAAAAATAAGACAAAAAAAAAAAAAAAAAAAAAAA | 5.91 ln median PBM intensity, better of two orientations
6 | GTGCAC_negctrl_site2 (dsDNA) DNA 1: ATATGAACAAAATAAATCTCTTCAAAAATAATGTTC DNA 2: GAACATTATTTTTGAAGAGATTTATTTTGTTCATAT | 5.98 ln median PBM intensity, better of two orientations
7 | GTGCAC_negctrl_site474 (dsDNA) DNA 1: ATAAAATATTAATTTTAAATTAATCAATATATATAA DNA 2: TTATATATATTGATTAATTTAAAATTAATATTTTAT | 6.16 ln median PBM intensity, better of two orientations
8 | GTGCAC_negctrl_site303 (dsDNA) DNA 1: TCTTTTTTTTTTTTTTTTTCTTCTTCTCAATATAAA DNA 2: TTTATATTGAGAAGAAGAAAAAAAAAAAAAAAAAGA | 6.15 ln median PBM intensity, better of two orientations
9 | GTGCAC_negctrl_site29 (dsDNA) DNA 1: TAAGTCAAAACTTTTTTTTCTAAATTTCCATAATTA DNA 2: TAATTATGGAAATTTAGAAAAAAAAGTTTTGACTTA | 5.89 ln median PBM intensity, better of two orientations
10 | GTGCAC_negctrl_site52 (dsDNA) DNA 1: TTTTTACTATAATTAAAATTAACAAAAGAAAATGAT DNA 2: ATCATTTTCTTTTGTTAATTTTAATTATAGTAAAAA | 6.13 ln median PBM intensity, better of two orientations
11 | GTGCAC_site9933 (dsDNA) DNA 1: ATCTTATATATATGTGTGCACGTATATATAAGCAAT DNA 2: ATTGCTTATATATACGTGCACACATATATATAAGAT | 9.28 ln median PBM intensity, better of two orientations
12 | GTGCAC_negctrl_site405 (dsDNA) DNA 1: TTTTTTATATTGATATTTATTAAATATGAAATGTTA DNA 2: TAACATTTCATATTTAATAAATATCAATATAAAAAA | 6.13 ln median PBM intensity, better of two orientations
13 | GTGCAC_negctrl_site221 (dsDNA) DNA 1: ATATGTATAAGTATGTATATTTATTTATACTTATGT DNA 2: ACATAAGTATAAATAAATATACATACTTATACATAT | 6.16 ln median PBM intensity, better of two orientations
14 | GTGCAC_negctrl_site162 (dsDNA) DNA 1: TTTCTTATAGATTTTAATCCTCTATCAAAAAAAGAA DNA 2: TTCTTTTTTTGATAGAGGATTAAAATCTATAAGAAA | 6.12 ln median PBM intensity, better of two orientations
15 | GTGCAC_negctrl_site143 (dsDNA) DNA 1: TTTTTTTTTTTTTTTTTTTTTTTTTTGTTCAGGCCT DNA 2: AGGCCTGAACAAAAAAAAAAAAAAAAAAAAAAAAAA | 5.99 ln median PBM intensity, better of two orientations
16 | GTGCAC_negctrl_site318 (dsDNA) DNA 1: ATTTAAAAAAAAAAAAATAAATAACTTGAAAAACAA DNA 2: TTGTTTTTCAAGTTATTTATTTTTTTTTTTTTAAAT | 6.08 ln median PBM intensity, better of two orientations
17 | GTGCAC_negctrl_site240 (dsDNA) DNA 1: TTTTTTTTTTTTTTTTTTTGATTCTTATAAAAATTT DNA 2: AAATTTTTATAAGAATCAAAAAAAAAAAAAAAAAAA | 6.02 ln median PBM intensity, better of two orientations
18 | GTGCAC_site10445 (dsDNA) DNA 1: ACGGAAAAAGAAAAGGTGCATATGGACACAATATAT DNA 2: ATATATTGTGTCCATATGCACCTTTTCTTTTTCCGT | 9.46 ln median PBM intensity, better of two orientations
19 | GTGCAC_negctrl_site564 (dsDNA) DNA 1: ATAATGAACAATATTATATATAAAATATAATTTATA DNA 2: TATAAATTATATTTTATATATAATATTGTTCATTAT | 6.17 ln median PBM intensity, better of two orientations
20 | GTGCAC_negctrl_site165 (dsDNA) DNA 1: AATCGATTGGATAATATTTTTTCTCTTAATTTTTTG DNA 2: CAAAAAATTAAGAGAAAAAATATTATCCAATCGATT | 5.77 ln median PBM intensity, better of two orientations
21 | GTGCAC_negctrl_site630 (dsDNA) DNA 1: TTCTTTTCTTTTTTCTTTTTTTTTTTCTTTTCTTTT DNA 2: AAAAGAAAAGAAAAAAAAAAAGAAAAAAGAAAAGAA | 6.08 ln median PBM intensity, better of two orientations
22 | GTGCAC_negctrl_site727 (dsDNA) DNA 1: TTTTTCTTTTTCTTTTTTTCTTTTTTTTTTTTTTTC DNA 2: GAAAAAAAAAAAAAAAGAAAAAAAGAAAAAGAAAAA | 5.74 ln median PBM intensity, better of two orientations

Row | Binder | binding signal
23 | GTGCAC_negctrl_site124 (dsDNA) DNA 1: TTTTAAAATTTTTTTTTTTTTTTTTTATGAACAAGT DNA 2: ACTTGTTCATAAAAAAAAAAAAAAAAAATTTTAAAA | 5.92 ln median PBM intensity, better of two orientations
24 | GTGCAC_negctrl_site380 (dsDNA) DNA 1: ATGGAAGGATAATAAAAACCTTTACCTTTCTGTTTA DNA 2: TAAACAGAAAGGTAAAGGTTTTTATTATCCTTCCAT | 5.82 ln median PBM intensity, better of two orientations
25 | GTGCAC_negctrl_site725 (dsDNA) DNA 1: TTTTTAATCAGAAATATTTATTAAAGAATTTTATAG DNA 2: CTATAAAATTCTTTAATAAATATTTCTGATTAAAAA | 5.95 ln median PBM intensity, better of two orientations
26 | GTGCAC_negctrl_site289 (dsDNA) DNA 1: TTTTTAGAAAAGGTTATAAAAAATTAATTGAAAAAA DNA 2: TTTTTTCAATTAATTTTTTATAACCTTTTCTAAAAA | 6.15 ln median PBM intensity, better of two orientations
27 | GTGCAC_site9537 (dsDNA) DNA 1: TAAATATATATATGTGTGCACTTCTTCATTTTAATA DNA 2: TATTAAAATGAAGAAGTGCACACATATATATATTTA | 9.22 ln median PBM intensity, better of two orientations
28 | GTGCAC_site10562 (dsDNA) DNA 1: TTATTTATTTATATAGTGCAATAAACACATAAATAG DNA 2: CTATTTATGTGTTTATTGCACTATATAAATAAATAA | 9.14 ln median PBM intensity, better of two orientations
29 | GTGCAC_negctrl_site697 (dsDNA) DNA 1: AAAACTTTTAAAATTTTGTATTCATTCCTTCAACAA DNA 2: TTGTTGAAGGAATGAATACAAAATTTTAAAAGTTTT | 6.07 ln median PBM intensity, better of two orientations
30 | GTGCAC_negctrl_site152 (dsDNA) DNA 1: ATTATTTAATTTTATTAAAAAAAAACAAATTAACAG DNA 2: CTGTTAATTTGTTTTTTTTTAATAAAATTAAATAAT | 6.14 ln median PBM intensity, better of two orientations
31 | GTGCAC_negctrl_site302 (dsDNA) DNA 1: TAAAAAAATAAAAAAAAAAAATTATAAAATTATATA DNA 2: TATATAATTTTATAATTTTTTTTTTTTATTTTTTTA | 5.98 ln median PBM intensity, better of two orientations
32 | GTGCAC_site10125 (dsDNA) DNA 1: ATATATATGGAAACAGTGCAATACATATATATATAT DNA 2: ATATATATATATGTATTGCACTGTTTCCATATATAT | 9.41 ln median PBM intensity, better of two orientations
33 | GTGCAC_negctrl_site87 (dsDNA) DNA 1: ATATATATAAAATATTATATTAAAAAAAATAAAATA DNA 2: TATTTTATTTTTTTTAATATAATATTTTATATATAT | 6.1 ln median PBM intensity, better of two orientations
34 | GTGCAC_negctrl_site272 (dsDNA) DNA 1: AAGTTAGGATAGATCCAATAATTTTTAGTTTCTCTT DNA 2: AAGAGAAACTAAAAATTATTGGATCTATCCTAACTT | 5.7 ln median PBM intensity, better of two orientations
35 | GTGCAC_negctrl_site34 (dsDNA) DNA 1: AACTTAAAAAAAAAAAAAAAAAAAAAAAAAAAAAAA DNA 2: TTTTTTTTTTTTTTTTTTTTTTTTTTTTTTTAAGTT | 5.77 ln median PBM intensity, better of two orientations
36 | GTGCAC_negctrl_site147 (dsDNA) DNA 1: AGTAAAAAAAAAAAAAAAAAAAAAAAAAAAAAAAAA DNA 2: TTTTTTTTTTTTTTTTTTTTTTTTTTTTTTTTTACT | 6.13 ln median PBM intensity, better of two orientations
37 | GTGCAC_site9856 (dsDNA) DNA 1: TTAGCAGGACGTTTGGTGCACGTACTGTTTTTCTTT DNA 2: AAAGAAAAACAGTACGTGCACCAAACGTCCTGCTAA | 9.34 ln median PBM intensity, better of two orientations
38 | GTGCAC_negctrl_site145 (dsDNA) DNA 1: TTTGTAAAATAATATCTTTCATGTCCTTACTAATTA DNA 2: TAATTAGTAAGGACATGAAAGATATTATTTTACAAA | 5.95 ln median PBM intensity, better of two orientations
39 | GTGCAC_negctrl_site607 (dsDNA) DNA 1: TTTTCATTTATGTATATATTTATTTTGATTTAATGT DNA 2: ACATTAAATCAAAATAAATATATACATAAATGAAAA | 6.11 ln median PBM intensity, better of two orientations
40 | GTGCAC_negctrl_site480 (dsDNA) DNA 1: TTATAATAAAAGGCTTTACAATTATTAAACAAATAA DNA 2: TTATTTGTTTAATAATTGTAAAGCCTTTTATTATAA | 6.03 ln median PBM intensity, better of two orientations
41 | GTGCAC_negctrl_site144 (dsDNA) DNA 1: TTTTTTCTTTTTTTTTTTAATTATAAACATGATATT DNA 2: AATATCATGTTTATAATTAAAAAAAAAAAGAAAAAA | 6.07 ln median PBM intensity, better of two orientations
42 | GTGCAC_negctrl_site466 (dsDNA) DNA 1: AAAAAAATTAAAAATTAAAATTAAAAATAATATATA DNA 2: TATATATTATTTTTAATTTTAATTTTTAATTTTTTT | 5.91 ln median PBM intensity, better of two orientations
43 | GTGCAC_negctrl_site459 (dsDNA) DNA 1: TTTTTTAGATTACATAAATATAAATATAAATATATA DNA 2: TATATATTTATATTTATATTTATGTAATCTAAAAAA | 6.12 ln median PBM intensity, better of two orientations
44 | GTGCAC_negctrl_site722 (dsDNA) DNA 1: ATAATACAAAAAAAAAAAAAAAATAAAATAATAAAA DNA 2: TTTTATTATTTTATTTTTTTTTTTTTTTTGTATTAT | 6.04 ln median PBM intensity, better of two orientations
